Test results: article PMC6829319, “Combination of SAXS and Protein Painting Discloses the Three-Dimensional Organization of the Bacterial Cysteine Synthase Complex, a Potential Target for Enhancers of Antibiotic Action” (International Journal of Molecular Sciences, 2019)

B1: serine acetyltransferase (CysE) from E. coli (enzyme)
chain: MSCEELEIVWNNIKAEARTLADCEPMLASFYHATLLKHENLGSALSYMLANKLSSPIMPAIAIREVVEEAYAADPEMIASAACDIQAVRTRDPAVDKYSTPLLYLKGFHALQAYRIGHWLWNQGRRALAIFLQNQVSVTFQVDIHPAAKIGRGIMLDHATGIVVGETAVIENDVSILQSVTLGGTGKSGGDRHPKIREGVMIGAGAKILGNIEVGRGAKIGAGSVVLQPVPPHTTAAGVPARIVGKPDSDKPSMDMDQHFNGINHTFEYGDGI
notes: serine acetyltransferase (CysE), E. coli; Hexamer (dimer of trimers); source: E. coli BL21(DE3) or BL21(DE3) Tuner, pSH21p vector, purified, tag removed as previously described [50]
B2: O-acetylserine sulfhydrylase isozyme A (CysK) from E. coli (enzyme)
chain: KIFEDNSLTIGHTPLVRLNRIGNGRILAKVESRNPSFSVKCRIGANMIWDAEKRGVLKPGVELVEPTSGNTGIALAYVAAARGYKLTLTMPETMSIERRKLLKALGANLVLTEGAKGMKGAIQKAEEIVASNPEKYLLLQQFSNPANPEIHEKTTGPEIWEDTDGQVDVFIAGVGTGGTLTGVSRYIKGTKGKTDLISVAVEPTDSPVIAQALAGEEIKPGPHKIQGIGAGFIPANLDLKLVDKVIGITNEEAISTARRLMEEEGILAGISSGAAVAAALKLQEDESFTNKNIVVILPSSGERYLSTALFADLFTEKELQQ
notes: Carries the pyridoxal 5'-phosphate (PLP) cofactor; Dimer; source: E. coli BL21(DE3) or BL21(DE3) Tuner, pET21P vector, purified as previously described [50]

Key:
[1] = target: B2; experiment: other fluorescence titration; PLP fluorescence emission of CysK at 500 nm after excitation at 412 nm with increasing concentrations of CysE; 20 °C; stoichiometric titration, ratio of CysE to CysK; settings: both partners purified
[2] = target: the molecule itself; experiment: SAXS; solution scattering at 10 °C; 20 mM sodium phosphate, 85 mM NaCl, 2 mM EDTA, 10 mM 2-MCE, pH 7.5; 0.5-1.5 mg/mL; CysK, CysE and CS (gel filtered and dialysed before) each measured; ab initio DAMMIF and SASREF rigid body models

stoichiometry N [1] | Binder | stoichiometry N [2]
1.7 | B1 | 6
 | B2 | 2
